Sequences and labels used below:
B1: scFv-3C (scFv)
scFv: QVQLVQSGGGLVQPGGSLRLSCAASGFTFSSYAMHWVRQAPGKGLEWVTVISPDGHNTYYADSVKGRFTISRDNSKNTLYLQMNSLRAEDTAVYYCARASVGATGPFDIWGQGTLVTVSSASTGGGGSGGGGSGGGGSGGGGSSSELTQPPSVSVAPGQTVTITCQGDSLRSYYASWYQQKPGTAPKLLIYGENNRPSGVPDRFSGSSSGTSASLTITGAQAEDEADYYCNSRDSSGTHLTVFGGGTKLTVLGGGSGGC
notes: also called clone 3
B2: scFv-7C (scFv)
scFv: B1 scFv with T49S, D54A, H56P
notes: also called clone 7
B3: scFv-11C (scFv)
scFv: B1 scFv with T49A, P53H, D54H, H56S
notes: also called clone 11
B4: scFv-10C (scFv)
scFv: B1 scFv with T49S, V50A, D54P
notes: also called clone 10
B5: scFv-9C (scFv)
scFv: B1 scFv with D54N
notes: also called clone 9
B6: scFv-19C (scFv)
scFv: B1 scFv with T49S, D54P
B7: scFv-16C (scFv)
scFv: B1 scFv with T49S, P53N, D54N
B8: scFv-13C (scFv)
scFv: B1 scFv with D54T, H56A
notes: also called clone 13
B9: scFv-8C (scFv)
scFv: B1 scFv with D54S
notes: also called clone 8
B10: scFv-18 (scFv)
scFv: QVQLVQSGGGLVQPGGSLRLSCAASGFTFSSYAMHWVRQAPGKGLEWVSVISPAGTNTYYADSVKGRFTISRDNSKNTLYLQMNSLRAEDTAVYYCARASVGATGPFDIWGQGTLVTVSSASTGGGGSGGGGSGGGGSGGGGSSSELTQPPSVSVAPGQTVTITCQGDSLRSYYASWYQQKPGTAPKLLIYGENNRPSGVPDRFSGSSSGTSASLTITGAQAEDEADYYCNSRDSSGTHLTVFGGGTKLTVLG
B11: scFv-3 (scFv)
scFv: B10 scFv with S49T, A54D, T56H
B12: scFv-21 (scFv)
scFv: B10 scFv with S49T, P53R, A54H, T56N, T58K
B13: scFv-20 (scFv)
scFv: B10 scFv with S49T, P53H, A54D
B14: scFv-22 (scFv)
scFv: B10 scFv with S49T, A54G, T56P, T58K

Results on 14 molecules are retold here after patent publication US20170267768A1 (University of California, published 2017).

Where a chain is given by its changes, count along the chain named.

T2 sequence (P29317 24-976): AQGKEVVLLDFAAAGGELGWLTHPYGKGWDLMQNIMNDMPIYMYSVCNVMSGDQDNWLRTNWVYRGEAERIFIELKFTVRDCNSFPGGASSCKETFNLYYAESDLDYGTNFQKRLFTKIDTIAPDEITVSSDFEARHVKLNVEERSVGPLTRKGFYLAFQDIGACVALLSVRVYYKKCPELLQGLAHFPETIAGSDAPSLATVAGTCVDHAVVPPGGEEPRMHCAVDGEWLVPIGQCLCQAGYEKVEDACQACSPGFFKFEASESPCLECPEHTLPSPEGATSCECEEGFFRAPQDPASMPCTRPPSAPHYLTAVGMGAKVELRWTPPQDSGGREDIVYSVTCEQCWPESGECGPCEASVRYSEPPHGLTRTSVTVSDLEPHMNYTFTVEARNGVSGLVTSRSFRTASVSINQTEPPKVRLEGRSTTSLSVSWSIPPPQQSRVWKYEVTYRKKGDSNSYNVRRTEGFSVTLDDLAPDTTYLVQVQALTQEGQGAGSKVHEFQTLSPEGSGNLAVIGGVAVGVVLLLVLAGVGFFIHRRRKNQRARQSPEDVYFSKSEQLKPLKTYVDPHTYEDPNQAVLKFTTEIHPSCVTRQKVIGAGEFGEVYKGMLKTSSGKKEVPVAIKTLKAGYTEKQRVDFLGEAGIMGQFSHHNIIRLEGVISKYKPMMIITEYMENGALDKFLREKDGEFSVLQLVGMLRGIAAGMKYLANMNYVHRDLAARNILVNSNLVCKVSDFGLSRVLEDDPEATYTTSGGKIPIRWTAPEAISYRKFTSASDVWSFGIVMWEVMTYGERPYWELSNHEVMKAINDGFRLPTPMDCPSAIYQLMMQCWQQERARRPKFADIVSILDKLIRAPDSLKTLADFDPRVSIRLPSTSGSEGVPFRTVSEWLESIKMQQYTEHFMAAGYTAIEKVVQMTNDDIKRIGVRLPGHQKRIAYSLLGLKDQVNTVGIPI

The target in the first assay is Staphylococcus aureus Protein A (Staphylococcus aureus, UniProt P38507 37-477). Put plainly: Protein A binding measured as in Example 1, compared to TS1C. Here is the method:
Protein A binding for multiple samples was determined as follows: scFvs expressed by mammalian cells were obtained from cultures by centrifugation at 4000 g for 15 minutes to remove cells. The scFv titer in the supernatant was determined using Fortebio. Protein A binding was assayed using a 96 well Protein A plate (Protein A 96 well protein purification plate (GE Healthcare: Life Sciences, Protein A HP MultiTrap®) which contains Protein A-conjugated resin in wells with porous bottoms, allowing liquid in the wells to be collected from underneath via centrifugation or suction. Each well of the plate was washed with 1×PBS, and supernatant containing 250 μg of protein was loaded into each well. The supernatant is then separated from the Protein A resin using a vacuum manifold (Whatman®) with 10 mbar of pressure and the flow-through from each well separately collected into empty wells of a standard 96 well plate. The wells of the Protein A plate were then washed with 600 μL of 1×PBS (pH 7.6). To elute the resin-bound Ab, 200 μL of 0.1M acetic acid was added to each well and incubated at room temperature for 3-10 minutes. The plate was placed over a second plate to capture eluate and centrifuged at 100×g for 2 minutes, and 20 μL of 1M Tris, pH 8.0 was added to neutralize the Abs in the eluate. To determine the percentage of Protein A binding, the concentration of scFv remaining in the flow-through was compared to the amount of protein (250 ug) loaded originally.
The fold improvement in Protein A binding capacity (as compared to TS1C) was measured as described in Example 1.
Consider B1, for which the “Fold Improvement in Protein A Binding Capacity” value (“Fold Improvement” below) came to 6 fold.
On to B2, for which the “Fold Improvement” value amounted to 10.3 fold.
On to B3, for which the “Fold Improvement” value came out at 8.5 fold.
On to B4, for which the “Fold Improvement” value is 12.3 fold.

The target of a further assay is T1, His6-tagged recombinant human EphA2 protein (human, UniProt P29317 25-534).
T1 construct: also called his-tagged recombinant, human EphA2; human EphA2 with c-terminal His6
T1 sequence (P29317 25-534 limits assumed): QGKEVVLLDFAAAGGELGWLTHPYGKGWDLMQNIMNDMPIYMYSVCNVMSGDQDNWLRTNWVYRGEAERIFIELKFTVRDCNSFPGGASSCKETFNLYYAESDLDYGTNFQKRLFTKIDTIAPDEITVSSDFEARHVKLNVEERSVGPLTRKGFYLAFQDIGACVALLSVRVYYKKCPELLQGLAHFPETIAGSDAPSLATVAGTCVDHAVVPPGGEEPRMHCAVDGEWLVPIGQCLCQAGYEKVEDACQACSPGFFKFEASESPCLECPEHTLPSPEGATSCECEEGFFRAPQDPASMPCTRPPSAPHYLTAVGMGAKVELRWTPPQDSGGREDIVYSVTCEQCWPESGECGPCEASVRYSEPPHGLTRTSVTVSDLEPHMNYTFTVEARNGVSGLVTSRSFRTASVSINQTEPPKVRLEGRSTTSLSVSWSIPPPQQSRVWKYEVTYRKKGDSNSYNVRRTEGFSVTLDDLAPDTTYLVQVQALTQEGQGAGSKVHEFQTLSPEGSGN
Nature of the assay: BLI (Octet Red 96); His6-EphA2 on anti-His sensors; scFv-PEG-DSPE conjugate at 4.0 ug/ml after thermal stress. From the text: (§1) A nucleic acid encoding human EphA2 with c-terminal His6 appended was cloned into expression vector pCEP4 (Invitrogen® # V044-50) and transiently expressed in FreeStyle™ 293 cells (Invitrogen® #K900001) following polyethylenenimine transfection. The His6-tagged recombinant human EphA2 protein was purified from the cell culture medium using Ni-NTA Sepharose™ resin (Quiagen®, USA). Anti-His sensors for the fortéBIO® Octet Red 96 system (fortéBIO®-Pall® #18-5116) were coated with his-tagged recombinant, human EphA2 at concentration of 10 μg/ml protein for 300 sec, and a background run was carried out in PBS for 60 sec. For scFv-PEG-DSPE conjugates, the sensors were then incubated with 2.5 μg/ml (Study 1) or 4.0 μg/ml (Study 2) of the conjugate in PBS, pH 7.4, and the slopes of association curves were determined between 3-13 seconds of incubation, corrected for the buffer-only background, and compared across the variants. ScFv-linked liposomes were incubated with the sensors in PBS at 0.025 mM of liposome phospholipid, the slopes of the association curves were determined between 3-20 seconds of incubation, corrected for the buffer-only background, and compared across the variants.
(§2) Results are shown below in Table 6, in which column A gives scFv identifiers; column B indicates percent yield of scFv/lipopolymer linker conjugates; column C gives percent scFv-conjugate (not liposome-bound) EphA2 binding on-rate; column D gives percent scFv-conjugated-liposome EphA2 binding on-rate; and columns E (Study 1) and F (study 2) give percent antigen binding on-rate remaining in the scFv-conjugate (not liposome-bound) following thermal stress.
Background: Biolayer interferometry detects binding as a change in optical thickness at a sensor tip.
Regarding B1, the “percent antigen binding on-rate remaining in the scFv-conjugate following thermal stress (Study 2)” value was determined as 46.9%.
Take B5: the “percent antigen binding on-rate remaining in the scFv-conjugate following thermal stress (Study 2)” value was 12.2%.
As for B2, the “percent antigen binding on-rate remaining in the scFv-conjugate following thermal stress (Study 2)” value turned out to be 4.8%.
On to B6, for which the “percent antigen binding on-rate remaining in the scFv-conjugate following thermal stress (Study 2)” value was 5.1%.
Regarding B7, the “percent antigen binding on-rate remaining in the scFv-conjugate following thermal stress (Study 2)” value was found to be 4.6%.
In the case of B3, the “percent antigen binding on-rate remaining in the scFv-conjugate following thermal stress (Study 2)” value is -0.09%.
Still for that read-out and setting: as for B8, the figure is 9%; as for B4, 98.8%; as for B9, 7.3%.

The target in a further assay is T1, His6-tagged recombinant human EphA2 …. Put plainly: BLI (Octet Red 96); His6-EphA2 on anti-His sensors; scFv-PEG-DSPE conjugate at 2.5 ug/ml after thermal stress.
Description: as §1, §2
As to B1, the “percent antigen binding on-rate remaining in the scFv-conjugate following thermal stress (Study 1)” value was 56.5%.
For the molecule B5, the “percent antigen binding on-rate remaining in the scFv-conjugate following thermal stress (Study 1)” value is 25.2%.
B2: the “percent antigen binding on-rate remaining in the scFv-conjugate following thermal stress (Study 1)” value was 5.8%.
B3: the “percent antigen binding on-rate remaining in the scFv-conjugate following thermal stress (Study 1)” value was 1.6%.
In the case of B8, the “percent antigen binding on-rate remaining in the scFv-conjugate following thermal stress (Study 1)” value turned out to be 18.2%.
In the case of B4, the “percent antigen binding on-rate remaining in the scFv-conjugate following thermal stress (Study 1)” value amounted to 88.9%.
As to B9, the “percent antigen binding on-rate remaining in the scFv-conjugate following thermal stress (Study 1)” value was found to be 19.8%.

The next assay shares this target. Put plainly: BLI (Octet Red 96); His6-EphA2 on anti-His sensors; slope of association curve of scFv-linked liposomes at 0.025 mM phospholipid; TS1C printed as 100.
Description: as §1, §2
For the molecule B1, the “percent scFv-conjugated-liposome EphA2 binding on-rate” value is 119%.
On the same count and under the same terms, as for B5, the figure is 118%; as for B2, 119%.
As to B6, the “percent scFv-conjugated-liposome EphA2 binding on-rate” value amounted to 129%.
As to B7, the “percent scFv-conjugated-liposome EphA2 binding on-rate” value was determined as 113%.
B3: the “percent scFv-conjugated-liposome EphA2 binding on-rate” value amounted to 120%.
For B8, the “percent scFv-conjugated-liposome EphA2 binding on-rate” value was 120%.
As for B4, the “percent scFv-conjugated-liposome EphA2 binding on-rate” value was found to be 110%.
B9: the “percent scFv-conjugated-liposome EphA2 binding on-rate” value worked out at 133%.

Another assay has the same target. Put plainly: BLI (Octet Red 96); His6-EphA2 on anti-His sensors; slope of association curve of scFv-PEG-DSPE conjugate; TS1C printed as 100.
Description: as §1, §2
Turning to B1, the “percent scFv-conjugate (not liposome-bound) EphA2 binding on-rate” value stood at 112%.
On the same count and under the same terms, for B5 the value was 114%; for B2, 110%.
As to B6, the “percent scFv-conjugate (not liposome-bound) EphA2 binding on-rate” value stood at 112%.
Consider B7, for which the “percent scFv-conjugate (not liposome-bound) EphA2 binding on-rate” value turned out to be 128%.
Take B3: the “percent scFv-conjugate (not liposome-bound) EphA2 binding on-rate” value came out at 109%.
Take B8: the “percent scFv-conjugate (not liposome-bound) EphA2 binding on-rate” value stood at 105%.
Consider B4, for which the “percent scFv-conjugate (not liposome-bound) EphA2 binding on-rate” value worked out at 104%.
The same measure, in the same setting: as for B9, the figure is 113%.

A further assay addresses T2, human EphA2 on OVCAR-3 and U-251 cells (human, UniProt P29317 24-976).
T2 construct: whole, on cells; also called EphA2 receptors
Put plainly: CLIA: scFv-decorated fluorescent NTA(Ni) liposomes on EphA2-expressing cells, FACS. On the procedure: To test the anti-EphA2 activity of these variant scFvs, the binding and internalization of liposomes externally decorated with these Abs was assayed on cell lines expressing EphA2. A rapid high-throughput Chelated Ligand-induced Internalization Assay (CLIA) (Nielsen et al., BMC immunology, 2006, 7:24) was used to screen anti-EphA2-scFv-targeted liposomes for binding and internalization assessment. Two cell lines that express high levels of EphA2 receptors, OVCAR-3 and U-251, were tested, as well as a murine EphA2-expressing mouse cell line, CT-26 (to test whether cross-reactivity to murine EphA2 was retained by the engineered scFvs). Via nickel-binding by each scFv's c-terminal His6 tag, the scFvs were bound to fluorescently labeled liposomes comprising an NTA(Ni) conjugated lipid (Dil5-NTA liposomes).
Dil5-NTA liposomes were prepared as follows. The NTA conjugated lipid, DOD-Tri-NTA, was synthesized as described in Huang et al., Bioconjugate chemistry, 2006, vol. 17, p. 1592-1600. Hydrogenated soy phosphatidylcholine (HSPC), cholesterol, methoxy-PEG(2000)-distearoylphosphatidylethanolamine (PEG-DSPE), DOD-tri-NTA, and a fluorescent lipid dye, Dil5, (ThermoFisher® Invitrogen® Molecular Probes™, cat. # D12370) were combined in a chloroform solution at the molar ratio of 100:66.7:5:0.5:0.3 respectively and the solution evaporated under vacuum to dryness forming a lipid film. The film was hydrated in HEPES-buffered physiological saline (“HBS-6.5”—5 mM HEPES, 144 mM NaCl pH 6.5) at 68° C., the resulting lipid suspension was subjected to several cycles of freezing (dry ice-acetone) and thawing (68C), and extruded through two stacked polycarbonate membranes (Whatman Nuclepore, USA) with the pore size of 200 nm (6 times) and 100 nm (10 times) using Lipex™ thermobarrel extruder (Northern Lipids, Canada). This protocol typically produces unilamellar vesicles with the z-average size of 100-110 nm and polydispersity index less than 0.1. The extruded liposomes were chilled to room temperature, purified by gel-chromatography on a Sephadex® G-75 (GE Healthcare) column eluted with HBS-6.5, and then sterilized by passage through a 0.2-μm filter. The concentration of liposomal phospholipid was then determined after acid digestion using spectrophotometric phosphomolybdate method.
Take B10: the binding result was “binds”.
For the molecule B11, the binding result is “binds”.
Regarding B12, the binding result is “binds”.
For the molecule B13, the binding result is listed as “binds”.
Turning to B14, the binding result is reported as “binds”.
